The results in this text go back to article PMC10072977 (Biochemical and Biophysical Research Communications, 2023).

The target of this experiment is biotinylated SARS-CoV-2 WT RBD (Kactus Biosystems, CoV-VM4BDB) (SARS-CoV-2, UniProt P0DTC2, biotin). The experiment can be described thus: ELISA.

B1: rabbit monoclonal antibody (RmAb) 9H1 (antibody, V domains shown)
VH: QSVEESGGRLVTPGTPLTLTCTVSGFSLSRYAMSWVRQAPGKGLEWIGIIVDSGHTAYASWAKGRFTISRTSTTVDLKMTSLTTEDTATYFCARETGGGAFYVFEFWGPGTVVTVSS
VL: QVLTQTPSSVSAAVGGTVTINCQASEDIYDNLVWYQQKPGQPPKLLIYDASTLAFGVSSRFRGSGSGTHFTLTMRDVQCDDAATYYCQGEFSCSSGDCTAFGGGTEVVVK
Consider B1, for which the binding result was “binds”.
